Test results reported in the supplement of paper PMC7125110.
± gives the standard error. This sample holds only a part of the variants without activity.

B1: glmS ribozyme (parent)
chain: AUAAAAGCGCCAGAACUACAGAAAUGUAGUUGACGAGGAGGAGGUUUAUCGAAUUUUCGGCGGAUGCCUCCAAA

Variants of: B1
Experiment: self-cleavage kobs at 2500 uM GlcN6P; higher = faster cleavage; RNA array
Conditions: with glucosamine-6-phosphate
Summary of the method: (§1)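 kcat and KM were obtained from weighted Michaelis–Menten fits across concentrations of kobs values. Those came from one- or two-exponential decay fits to per-tile medians normalised to baseline and to non-cleaving reference variants. The variants were barcoded ribozymes transcribed in situ by E. coli RNA polymerase on sequenced MiSeq chips and tracked through a hybridised Cy3 probe at 37 °C, with 40 μM to 10 mM glucosamine-6-phosphate in HEPES/KCl/Mg(OAc)2 buffer flowed in.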

C8G A33C U56C G63U and G7U C11G C16G G32A A53U cannot be ordered by “self-cleavage kobs at 2500 uM GlcN6P” value: less than 1e-05 s⁻¹ for the first, less than 1e-05 s⁻¹ for the second.

First: C8G C11A A33C
Second: C11G G29U C50U C67U
The “self-cleavage kobs at 2500 uM GlcN6P” value of the first is lower: less than 1e-05 s⁻¹ for the first, 0.0015 ± 0.00049 s⁻¹ for the second.

Going from C8G A15C A36G to A12C U55A U69C, the “self-cleavage kobs at 2500 uM GlcN6P” value rises from less than 1e-05 s⁻¹ to 0.000484 ± 0.00011 s⁻¹.

Compared with C11G G41A G62U C68U, A12C U31G G32A is higher in “self-cleavage kobs at 2500 uM GlcN6P” value: less than 1e-05 s⁻¹ for the first, 0.000161 ± 5.6e-05 s⁻¹ for the second.

C11G G29A C70U and C11U G51U C70U are within error of each other in “self-cleavage kobs at 2500 uM GlcN6P” value: 6.76e-05 ± 3.2e-05 s⁻¹ for the first, 6.92e-05 ± 3.4e-05 s⁻¹ for the second.

Compared with A12U U31C G44U C67A, G9C G38A A52U is lower in “self-cleavage kobs at 2500 uM GlcN6P” value: 0.00303 ± 0.001 s⁻¹ for the first, less than 1e-05 s⁻¹ for the second.

C11U C16G G43A and A12G U31A G38C G40U G41A C58A cannot be ordered by “self-cleavage kobs at 2500 uM GlcN6P” value: less than 1e-05 s⁻¹ for the first, less than 1e-05 s⁻¹ for the second.

C8A C34A U69C and C8G G29U U69G cannot be ordered by “self-cleavage kobs at 2500 uM GlcN6P” value: less than 1e-05 s⁻¹ for the first, less than 1e-05 s⁻¹ for the second.

C8U A15G G43A and C10G G35U G38A G41U cannot be ordered by “self-cleavage kobs at 2500 uM GlcN6P” value: less than 1e-05 s⁻¹ for the first, less than 1e-05 s⁻¹ for the second.

C11A C34A G60U and C8U G13A G51A cannot be ordered by “self-cleavage kobs at 2500 uM GlcN6P” value: less than 1e-05 s⁻¹ for the first, less than 1e-05 s⁻¹ for the second.

C11U G29A U30G U55A G63C A64G and C8G A14U A42U cannot be ordered by “self-cleavage kobs at 2500 uM GlcN6P” value: less than 1e-05 s⁻¹ for the first, less than 1e-05 s⁻¹ for the second.

A12U G41U A42G G51C and C11U A15C G41U G60U cannot be ordered by “self-cleavage kobs at 2500 uM GlcN6P” value: less than 1e-05 s⁻¹ for the first, less than 1e-05 s⁻¹ for the second.

G9U G59U C70U and A12C A52C cannot be ordered by “self-cleavage kobs at 2500 uM GlcN6P” value: less than 1e-05 s⁻¹ for the first, less than 1e-05 s⁻¹ for the second.

C11U G40C G44A G51A C61G C71A and C8A G29C G37C A39U G43A U45G G51A cannot be ordered by “self-cleavage kobs at 2500 uM GlcN6P” value: less than 1e-05 s⁻¹ for the first, less than 1e-05 s⁻¹ for the second.

C8A U57C C70G C71U and C8A G32A A33U U55A cannot be ordered by “self-cleavage kobs at 2500 uM GlcN6P” value: less than 1e-05 s⁻¹ for the first, less than 1e-05 s⁻¹ for the second.

C10G G37A U56G G62U and C10U A52U A53U U55C U65G cannot be ordered by “self-cleavage kobs at 2500 uM GlcN6P” value: less than 1e-05 s⁻¹ for the first, less than 1e-05 s⁻¹ for the second.

C8U G37U A39C and C10G G44U C50G cannot be ordered by “self-cleavage kobs at 2500 uM GlcN6P” value: less than 1e-05 s⁻¹ for the first, less than 1e-05 s⁻¹ for the second.

A12G G38C U45A C67A and C8G A48U G62A cannot be ordered by “self-cleavage kobs at 2500 uM GlcN6P” value: less than 1e-05 s⁻¹ for the first, less than 1e-05 s⁻¹ for the second.

G7U G9C U57A G60C and C10G A42U G62C cannot be ordered by “self-cleavage kobs at 2500 uM GlcN6P” value: less than 1e-05 s⁻¹ for the first, less than 1e-05 s⁻¹ for the second.

Going from A12C G66U C70A to A12G C16G G44U, the “self-cleavage kobs at 2500 uM GlcN6P” value falls from 0.000107 ± 2.6e-05 s⁻¹ to less than 1e-05 s⁻¹.

Compared with A12G U30C C58A, C10U U31G A42C is lower in “self-cleavage kobs at 2500 uM GlcN6P” value: 0.000105 ± 3.1e-05 s⁻¹ for the first, less than 1e-05 s⁻¹ for the second.

A12U A39U G63A and C11G A15G A39C G40A cannot be ordered by “self-cleavage kobs at 2500 uM GlcN6P” value: less than 1e-05 s⁻¹ for the first, less than 1e-05 s⁻¹ for the second.

First: C8U G60U C61G C70G
Second: A12U G44U C70U
The “self-cleavage kobs at 2500 uM GlcN6P” value of the first is lower: less than 1e-05 s⁻¹ for the first, 5.27e-05 ± 1.8e-05 s⁻¹ for the second.

G9A U31G G40C and C8G G51C U54G cannot be ordered by “self-cleavage kobs at 2500 uM GlcN6P” value: less than 1e-05 s⁻¹ for the first, less than 1e-05 s⁻¹ for the second.

First: C11G G41U U57A
Second: G9A C50G C67G
The “self-cleavage kobs at 2500 uM GlcN6P” value of the first is lower: less than 1e-05 s⁻¹ for the first, 9.36e-05 ± 2.6e-05 s⁻¹ for the second.

C8A G32U A42U A48G G51C and G9A G43C U45G U65C cannot be ordered by “self-cleavage kobs at 2500 uM GlcN6P” value: less than 1e-05 s⁻¹ for the first, less than 1e-05 s⁻¹ for the second.

G7U C34U G60U A64G and C8A A42C A64G cannot be ordered by “self-cleavage kobs at 2500 uM GlcN6P” value: less than 1e-05 s⁻¹ for the first, less than 1e-05 s⁻¹ for the second.

G13A A39U A64U and A12C C50U G60U C67U cannot be ordered by “self-cleavage kobs at 2500 uM GlcN6P” value: less than 1e-05 s⁻¹ for the first, less than 1e-05 s⁻¹ for the second.

G9U G35A G59A C71U and A12U G32U G43C cannot be ordered by “self-cleavage kobs at 2500 uM GlcN6P” value: less than 1e-05 s⁻¹ for the first, less than 1e-05 s⁻¹ for the second.

C8G G29U U31A and G7U G29C A42C cannot be ordered by “self-cleavage kobs at 2500 uM GlcN6P” value: less than 1e-05 s⁻¹ for the first, less than 1e-05 s⁻¹ for the second.

Going from A12G A15U U54C C67G to G9A G44U C68G C70G, the “self-cleavage kobs at 2500 uM GlcN6P” value falls from 5.41e-05 ± 1.9e-05 s⁻¹ to less than 1e-05 s⁻¹.

A12C G41A G63A and C8A C11U A48U U56A cannot be ordered by “self-cleavage kobs at 2500 uM GlcN6P” value: less than 1e-05 s⁻¹ for the first, less than 1e-05 s⁻¹ for the second.

G9U G29A A33U and G9C U30A G44U G59U C61U G66C C70U cannot be ordered by “self-cleavage kobs at 2500 uM GlcN6P” value: less than 1e-05 s⁻¹ for the first, less than 1e-05 s⁻¹ for the second.

Going from C10G C50G U55A to G9U G29U A53G, the “self-cleavage kobs at 2500 uM GlcN6P” value falls from 6.66e-05 ± 2.3e-05 s⁻¹ to less than 1e-05 s⁻¹.

C10G G43U A64G and C10U A36U G51C A53C cannot be ordered by “self-cleavage kobs at 2500 uM GlcN6P” value: less than 1e-05 s⁻¹ for the first, less than 1e-05 s⁻¹ for the second.

Compared with G9U A36G U49A G62U C67U C70G, G9U A36U C50G U54G U57A C67U is higher in “self-cleavage kobs at 2500 uM GlcN6P” value: less than 1e-05 s⁻¹ for the first, 0.000182 ± 3.6e-05 s⁻¹ for the second.

G9U A36G C61G C67U and A12U G32A G60A cannot be ordered by “self-cleavage kobs at 2500 uM GlcN6P” value: less than 1e-05 s⁻¹ for the first, less than 1e-05 s⁻¹ for the second.

First: A12G U30G U45G U46A C68U
Second: A12U U57C C71G
The “self-cleavage kobs at 2500 uM GlcN6P” value of the first is lower: less than 1e-05 s⁻¹ for the first, 0.000242 ± 0.00011 s⁻¹ for the second.

Going from G9U U47G C68U to C10A C50A C67U, the “self-cleavage kobs at 2500 uM GlcN6P” value rises from less than 1e-05 s⁻¹ to 0.000776 ± 0.00021 s⁻¹.

A12G G63A C67A and C8G A12U U31A G51C cannot be ordered by “self-cleavage kobs at 2500 uM GlcN6P” value: less than 1e-05 s⁻¹ for the first, less than 1e-05 s⁻¹ for the second.

Variants of: B1
Experiment: self-cleavage kobs at 10000 uM GlcN6P; higher = faster cleavage; RNA array
Conditions: with glucosamine-6-phosphate
Summary of the method: as §1

C8G C11A A33C and G9C G38A A52U cannot be ordered by “self-cleavage kobs at 10000 uM GlcN6P” value: less than 1e-05 s⁻¹ for the first, less than 1e-05 s⁻¹ for the second.

C8A C34A U69C and A12U G41U A42G G51C cannot be ordered by “self-cleavage kobs at 10000 uM GlcN6P” value: less than 1e-05 s⁻¹ for the first, less than 1e-05 s⁻¹ for the second.

G9A G43C U45G U65C and G7U C34U G60U A64G cannot be ordered by “self-cleavage kobs at 10000 uM GlcN6P” value: less than 1e-05 s⁻¹ for the first, less than 1e-05 s⁻¹ for the second.

C10A C50A C67U was tested, and the “self-cleavage kobs at 10000 uM GlcN6P” value was 4.36e-05 ± 1.7e-05 s⁻¹.
